Nine molecules from article PMC4949242, “Conjugative DNA Transfer Is Enhanced by Plasmid R1 Partitioning Proteins” can be followed below.

Where a chain is given by its changes, count along the chain named. Names and notes keep the numbering of the source.

Series [1] concerns the target TraI, relaxase/helicase of plasmid R1 (plasmid R1 (R1-16), in E. coli).
The target in series [2] is T1, ParR (Escherichia coli plasmid R1, UniProt P11906 1-117).
T1 sequence: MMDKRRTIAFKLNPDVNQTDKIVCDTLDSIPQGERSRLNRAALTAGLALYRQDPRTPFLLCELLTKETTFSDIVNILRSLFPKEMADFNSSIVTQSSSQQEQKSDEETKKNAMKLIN
The series can be described thus: EMSA; ParR 20-320 nM; EMSA: 10 mM Tris-HCl pH 7.5, 50 mM NaCl, 0.005% NP-40, 1 mM DTT, 1 mM EDTA, 25 C, 20 min (DNA 20 nM in Methods, 4 nM in Fig 5 legend); fluorescence: 20 mM Tris-HCl pH 7.5, 100 mM NaCl, 1 mM EDTA, 25 C, 4 nM oriT17*, 0-100 nM TraI. The conditions noted are these: protein: recombinant; tags: none stated; chain copies: 2; label: 3'-TAMRA. (A gel shift assay detects complexes by their altered migration in electrophoresis.)

Series [3] deals with TraD, type IV coupling protein (T4CP) of plasmid R1 (plasmid R1 (R1-16), in E. coli).
In series [4] the target is T1, ParR. The series can be described thus: EMSA; shift from 5:1 protein/DNA molar ratio; EMSA: 10 mM Tris-HCl pH 7.5, 50 mM NaCl, 0.005% NP-40, 1 mM DTT, 1 mM EDTA, 25 C, 20 min (DNA 20 nM in Methods, 4 nM in Fig 5 legend); fluorescence: 20 mM Tris-HCl pH 7.5, 100 mM NaCl, 1 mM EDTA, 25 C, 4 nM oriT17*, 0-100 nM TraI. Particulars: protein: recombinant; tags: none stated; chain copies: 2; label: 3'-TAMRA on strand 1; blunt.

For series [5], the target named is T2, TraIN308 (relaxase domain) (Escherichia coli plasmid R1, UniProt Q6TDU5 1-308).
T2 sequence: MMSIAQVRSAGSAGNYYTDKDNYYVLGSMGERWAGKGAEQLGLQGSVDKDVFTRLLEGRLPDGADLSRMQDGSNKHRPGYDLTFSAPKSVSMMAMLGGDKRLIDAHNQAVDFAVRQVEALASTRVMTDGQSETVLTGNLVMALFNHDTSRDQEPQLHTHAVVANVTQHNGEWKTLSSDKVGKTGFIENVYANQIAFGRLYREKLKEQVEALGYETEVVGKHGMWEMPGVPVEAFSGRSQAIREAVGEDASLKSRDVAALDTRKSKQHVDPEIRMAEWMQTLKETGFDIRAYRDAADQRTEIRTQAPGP
The series can be described thus: fluorescence intensity titration; unit not printed with value; nM from titration range; EMSA: 10 mM Tris-HCl pH 7.5, 50 mM NaCl, 0.005% NP-40, 1 mM DTT, 1 mM EDTA, 25 C, 20 min (DNA 20 nM in Methods, 4 nM in Fig 5 legend); fluorescence: 20 mM Tris-HCl pH 7.5, 100 mM NaCl, 1 mM EDTA, 25 C, 4 nM oriT17*, 0-100 nM TraI. The conditions noted are these: protein: recombinant; label: 3'-TAMRA.

The next series addresses TraI (Escherichia coli plasmid R1, UniProt Q6TDU5 1-1756). The description is as above. Particulars: protein: recombinant; label: 3'-TAMRA.
The target in series [6] is T3, TraIΔN308 (helicase domain) (Escherichia coli plasmid R1, UniProt Q6TDU5 309-1756, del1-308).
T3 sequence: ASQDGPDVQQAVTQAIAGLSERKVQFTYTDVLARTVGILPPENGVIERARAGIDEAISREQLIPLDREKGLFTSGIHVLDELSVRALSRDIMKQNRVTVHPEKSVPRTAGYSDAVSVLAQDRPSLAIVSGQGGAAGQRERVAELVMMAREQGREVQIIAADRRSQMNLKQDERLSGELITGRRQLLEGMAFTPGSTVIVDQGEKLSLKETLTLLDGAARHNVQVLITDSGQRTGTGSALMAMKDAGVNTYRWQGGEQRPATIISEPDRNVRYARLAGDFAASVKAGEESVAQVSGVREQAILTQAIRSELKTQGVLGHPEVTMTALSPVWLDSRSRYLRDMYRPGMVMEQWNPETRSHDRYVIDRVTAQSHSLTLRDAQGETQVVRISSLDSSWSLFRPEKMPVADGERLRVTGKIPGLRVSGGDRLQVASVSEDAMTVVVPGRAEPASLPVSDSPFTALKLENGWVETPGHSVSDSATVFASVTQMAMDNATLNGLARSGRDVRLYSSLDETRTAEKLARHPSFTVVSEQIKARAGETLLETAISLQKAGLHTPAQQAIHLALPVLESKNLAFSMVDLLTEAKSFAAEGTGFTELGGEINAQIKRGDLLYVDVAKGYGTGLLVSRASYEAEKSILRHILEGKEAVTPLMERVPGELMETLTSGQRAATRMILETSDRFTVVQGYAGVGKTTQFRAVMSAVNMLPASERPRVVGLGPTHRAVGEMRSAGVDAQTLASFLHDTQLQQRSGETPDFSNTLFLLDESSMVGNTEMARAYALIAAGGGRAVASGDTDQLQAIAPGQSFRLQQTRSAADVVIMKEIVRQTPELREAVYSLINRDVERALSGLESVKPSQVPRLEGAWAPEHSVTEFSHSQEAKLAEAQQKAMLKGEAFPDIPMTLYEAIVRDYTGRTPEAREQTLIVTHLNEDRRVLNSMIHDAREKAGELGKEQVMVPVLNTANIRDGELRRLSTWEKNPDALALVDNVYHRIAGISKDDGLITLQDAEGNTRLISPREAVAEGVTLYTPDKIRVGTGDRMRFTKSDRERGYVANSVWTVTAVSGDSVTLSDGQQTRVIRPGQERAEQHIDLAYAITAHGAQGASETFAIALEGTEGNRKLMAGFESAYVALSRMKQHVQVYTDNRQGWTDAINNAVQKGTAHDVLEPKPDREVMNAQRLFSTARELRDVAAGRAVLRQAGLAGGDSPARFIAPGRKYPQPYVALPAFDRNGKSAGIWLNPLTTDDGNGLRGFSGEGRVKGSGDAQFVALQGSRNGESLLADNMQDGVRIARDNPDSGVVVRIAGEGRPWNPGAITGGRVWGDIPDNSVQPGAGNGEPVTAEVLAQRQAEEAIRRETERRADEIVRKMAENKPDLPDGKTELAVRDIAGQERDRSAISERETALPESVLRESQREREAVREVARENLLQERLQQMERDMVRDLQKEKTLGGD
The description is as above. The conditions noted are these: protein: recombinant; label: 3'-TAMRA.

Consider “ParR with C-terminal FLAG epitope (pMS-CFLAGparR) (natural protein)”, for which the TraI (25 nM) relaxase activity on supercoiled oriT plasmid pDE100 (4 nM), percent open circular DNA, with increasing purified untagged ParR; maximum at 10 nM ParR in series [1] came out at 4 fold.

Consider CGAACGAGCAGTTGTTTCAGCG (ssDNA) [ssrnd], for which, in the series with ParR [2], the binding result is given as “no binding”.

B1: CreParMK123A (Cre fused to ParM residues 2-320 with K123A) (protein)
chain: LVFIDDGSTNIKLQWQESDGTIKQHISPNSFKREWAVSFGDKKVFNYTLNGEQYSFDPISPDAVVTTNIAWQYSDVNVVAVHHALLTSGLPVSEVDIVCTLPLTEYYDRNNQPNTENIERKAANFRKKITLNGGDTFTIKDVKVMPESIPAGYEVLQELDELDSLLIIDLGGTTLDISQVMGKLSGISKIYGDSSLGVSLVTSAVKDALSLARTKGSSYLADDIIIHRKDNNYLKQRINDENKISIVTEAMNEALRKLEQRVLNTLNEFSGYTHVMVIGGGAELICDAVKKHTQIRDERFFKTNNSQYDLVNGMYLIGN
In turn, B1 showed a translocation of CreParMK123A to recipient cells by the R1-16 T4SS (CRAfT), percent of wild type Cre-ParM (% of wild type levels) in series [3] of 24.5.

B2: CreParMS39A (Cre fused to ParM residues 2-320 with S39A) (protein)
chain: B1 chain with S38A, A122K
With B2, the translocation of CreParMS39A to recipient cells by the R1-16 T4SS (CRAfT), percent of wild type Cre-ParM (% of wild type levels) in series [3] is 59.

B3: dsparC (iterons 1 and 2) (dsDNA)
DNA 1: AAACAAAACCCAAAAACAACCC
DNA 2: GGGTTGTTTTTGGGTTTTGTTT
Take B3: the binding result in the series with ParR [4] is listed as “binds”.

Usually Kd stands for the equilibrium constant for the complex coming apart. On to TTTGCGTGGGGTGTGGT (ssDNA) [oriT17*], for which the Kd in series [5] stood at 0.87 ± 0.19 nM; with TraI it was 4.05 ± 0.32 nM; in series [6], 82.6 ± 13.1 nM.

AAACAAAACCCAAAAACAACCC (ssDNA) [ssparC]: the binding result with ParR [2] is on record as “no binding”.

B4: ParM with C-terminal FLAG epitope (pMS-CFLAGparM) (natural protein)
chain: MLVFIDDGSTNIKLQWQESDGTIKQHISPNSFKREWAVSFGDKKVFNYTLNGEQYSFDPISPDAVVTTNIAWQYSDVNVVAVHHALLTSGLPVSEVDIVCTLPLTEYYDRNNQPNTENIERKKANFRKKITLNGGDTFTIKDVKVMPESIPAGYEVLQELDELDSLLIIDLGGTTLDISQVMGKLSGISKIYGDSSLGVSLVTSAVKDALSLARTKGSSYLADDIIIHRKDNNYLKQRINDENKISIVTEAMNEALRKLEQRVLNTLNEFSGYTHVMVIGGGAELICDAVKKHTQIRDERFFKTNNSQYDLVNGMYLIGN
Regarding B4, the TraI (25 nM) relaxase activity on supercoiled oriT plasmid pDE100 (4 nM), percent open circular DNA, with increasing purified untagged ParM; maximum at 20-30 nM ParM in series [1] worked out at 3 fold.

Consider ACCAAAAGCACCACACCCCACGCAAAAACAAG (ssDNA) [ssoriT], for which the binding result in the series with ParR [2] is “no binding”.
